Laboratory results reported in patent publication US20220298254A1 (HUMMINGBIRD BIOSCIENCE HOLDINGS PTE, published 2022).
Read-outs that look alike come from different tables or passages of the source.

Key:
[1] = target: T1, human CD47 (recombinant protein, construct not stated) (human, UniProt Q08722 19-141); test: ELISA on coated human CD47
T1 construct: also called hCD47; human CD47 protein
Protocol: (§1) 96-well plates (Nunc, Denmark) were coated with 1 μg/ml of human CD47 or VISTA protein in PBS, for 1 h at room temperature. Plates were blocked for 1 h at room temperature with 1% BSA in Tris buffer saline containing 0.05% Tween 20 (TBS-T). The test antigen-binding molecules were added at concentrations ranging from to 0.002 μg/ml to 200 μg/ml, and the plates were incubated at room temperature for 1 h. Plates were then washed three times with TBS-T, and were then incubated with a HRP-conjugated secondary antibody for 1 h at room temperature. After washing, plates were developed with colorimetric detection substrate 3,3′,5,5′-tetramethylbenzidine (Turbo-TMB; Pierce, USA). The reaction was stopped after 3.5 min with 2M […], and OD was measured at 450 nm.

human VISTA protein = human VISTA protein (human, UniProt Q9H7M9 33-194, limits assumed); test: ELISA on coated human VISTA protein
Protocol: as §1
In a separate ELISA, the antigen-binding molecules were evaluated for binding to human VISTA.

[2] = target: T2, untagged human CD47 protein (Sinobiological Inc) (human, UniProt Q08722 19-141); test: competition ELISA: inhibition of His-tagged SIRPα binding to coated human CD47
T2 construct: Bought

[3] = target: T1, human CD47 (recombinant protein, …); test: BLI (BLItz), IgG1 captured on anti-human Fc tips, human CD47 as analyte, 1:1 global fit
Protocol: Biosensors were first hydrated for at least 10 m in assay buffer (phosphate buffered saline) followed by buffer baseline for 60 s and loading of the human IgGs onto the biosensor tips at 25 nM for 120 s. The tips were then washed briefly for 60 s with the assay buffer to remove nonspecifically bound proteins or unbound IgGs for obtaining a second buffer baseline. The association phase of the IgGs with antigens (250 nM to 62.5 nM) was set up at 120 s which was followed by a dissociation phase (assay buffer alone) for 120 s. All the BLITz runs were measured at room temperature at a stirring speed of 1000 rpm and AHC biosensors were regenerated using 10 mM of glycine (pH 2.7) after the assay. Binding affinity between the immobilized antibodies on the AHC sensors and human CD47 were determined by analyzing the binding kinetic curves using the software BLItz Pro. All the sensorgrams were reference subtracted and globally fitted into a 1:1 model which analysed the binding curves at different concentrations of antigens and generated kinetic constants (KD/Ka/Kd) for the globally fitted data. All the binding curves were subjected to step correction which corrects the misalignment between association and dissociation steps and only the curves with R² values greater than 0.9 were used for analysis.

[4] = target: T1, human CD47 (recombinant protein, …); test: as above; remark: listed apart in the source
Protocol: Bio-Layer Interferometry (BLI) experiments were performed using a single channel BLItz system (ForteBio, Menlo Park, Calif.) using Anti-human immunoglobulin G (IgG) Fc (AHC) coated biosensor tips (Pall ForteBio, Menlo Park, Calif.) for capturing human IgGs. Biosensors were first hydrated for at least 10 m in assay buffer (phosphate buffered saline) followed by buffer baseline for 30 s and loading of the human IgGs onto the biosensor tips at concentrations ranging from 25-50 nM for 120 s. The tips were then washed briefly for 30 s with the assay buffer to remove nonspecifically bound proteins or unbound IgGs for obtaining a second buffer baseline. […] All the BLITz runs were measured at room temperature at a stirring speed of 1000 rpm and AHC biosensors were regenerated using 10 mM of glycine (pH 2.7) after the assay. Binding affinity between the immobilized antibodies on the AHC sensors and human CD47 were determined by analyzing the binding kinetic curves using the software BLItz Pro. All the sensorgrams were reference subtracted and globally fitted into a 1:1 model which analysed the binding curves at different concentrations of antigens and generated kinetic constants (KD/Ka/Kd) for the globally fitted data. […]
(§2) The anti-CD47 antibody clones in IgG1 format were analyzed for binding affinity to human CD47.

[5] = target: T1, human CD47 (recombinant protein, …); test: BLI (BLItz), IgG captured on anti-human IgG Fc (AHC) tips, human CD47 as analyte, global 1:1 fit
Protocol: Bio-Layer Interferometry (BLI) experiments were performed using a single channel BLItz system (ForteBio, Menlo Park, Calif.) using Anti-human immunoglobulin G (IgG) Fc (AHC) coated biosensor tips (Pall ForteBio, Menlo Park, Calif.) for capturing human IgGs. Biosensors were first hydrated for at least 10 m in assay buffer (phosphate buffered saline) followed by buffer baseline for 30 s and loading of the human IgGs onto the biosensor tips at concentrations ranging from 25-50 nM for 120 s. The tips were then washed briefly for 30 s with the assay buffer to remove nonspecifically bound proteins or unbound IgGs for obtaining a second buffer baseline. The association phase of the IgGs with antigens (500 nM-0 nM) was set up at 120 s which was followed by a dissociation phase (assay buffer alone) for 120 s. All the BLITz runs were measured at room temperature at a stirring speed of 1000 rpm and AHC biosensors were regenerated using 10 mM of glycine (pH 2.7) after the assay. Binding affinity between the immobilized antibodies on the AHC sensors and human CD47 were determined by analyzing the binding kinetic curves using the software BLItz Pro. All the sensorgrams were reference subtracted and globally fitted into a 1:1 model which analysed the binding curves at different concentrations of antigens and generated kinetic constants (KD/Ka/Kd) for the globally fitted data. All the binding curves were subjected to step correction which corrects the misalignment between association and dissociation steps and only the curves with R² values greater than 0.9 were used for analysis.
as §2

Binder	EC50 [1] [µg/mL]	Fold increase in EC50 relative to 1-1-A1_BM [1] [fold]	binding result (human VISTA protein)	Fold increase in IC50 relative to 1-1-A1_BM [2] [fold]	IC50 [2] [µg/mL]	Kd [3] [nM]	koff [3] [s⁻¹]	kon [3] [M⁻¹ s⁻¹]	Kd [4] [nM]	koff [5] [s⁻¹]	kon [5] [M⁻¹ s⁻¹]
11A1H10-IgG1 (antibody, V domains shown, Humanised version of clone 1-1-A1, IgG1/kappa; also called 1A11H10) VH: QVQLVQSGAEVKKPGASVKVSCKASGYTFTGYVIHWVRQAPGQGLEWMGYINPYNGGTNYAQKFKGRVTLTSDTSTTTAYMELSRLRSEDTAVYYCASGGYYTMDYWGQGTLVTVSS VL: DVVMTQSPLSLPVTLGQPASISCRSSQHLEYSNGYSYLHWYQQRPGQSPRLLIYKVSNRDSGVPDRFSGSGSGTDFTLKISRVEAEDVGVYYCSQSTHVPYTFGGGTKVEIKR	38.1	21200	no binding (tested: 0.002 µg/ml to 200 µg/ml)	> 200	> 100	111	0.00898	80900			
11A1H5-IgG1 (antibody, V domains shown, Humanised version of clone 1-1-A1, IgG1/kappa; also called 1A11H5) VH: QVQLVQSGAEVKKPGASVKVSCKASGYTFTGYVIHWVRQAPGQGLEWMGYINPYNGGTNYAQKFKGRVTLTSDTSTTTAYMELSRLRSEDTAVYYCASGGYYTMDYWGQGTLVTVSS VL: DVVMTQSPLSLPVTLGQPASISCRSSQHLEYSNGYSYLHWYQQRPGQSPRLLIYKISNRFSGVPDRFSGSGSGTDFTLKISRVEAEDVGVYYCSQSTHVPYTFGGGTKVEIKR	0.00015	0.08	no binding (tested: 0.002 µg/ml to 200 µg/ml)	0.42	0.201	9.28	0.0012	129000			
11A1H9-IgG1 (antibody, V domains shown, Humanised version of clone 1-1-A1, IgG1/kappa; also called 1A11H9) VH: QVQLVQSGAEVKKPGASVKVSCKASGYTFTGYVIHWVRQAPGQGLEWMGYINPYNGGTNYAQKFKGRVTLTSDTSTTTAYMELSRLRSEDTAVYYCASGGYYTMDYWGQGTLVTVSS VL: DVVMTQSPLSLPVTLGQPASISCRSSQHLEYSTGYSYLHWYQQRPGQSPRLLIYKVSNRDSGVPDRFSGSGSGTDFTLKISRVEAEDVGVYYCSQSTHVPYTFGGGTKVEIKR	23.5	13100	no binding (tested: 0.002 µg/ml to 200 µg/ml)	> 200	> 100	23.3	0.00635	273000			
11A1H11-IgG1 (antibody, V domains shown, Humanised version of clone 1-1-A1, IgG1/kappa; also called 1A11H11) VH: QVQLVQSGAEVKKPGASVKVSCKASGYTFTGYVIHWVRQAPGQGLEWMGYINPYNGGTNYAQKFKGRVTLTSDTSTTTAYMELSRLRSEDTAVYYCASGGYYTMDYWGQGTLVTVSS VL: DVVMTQSPLSLPVTLGQPASISCRSSQHLEYSNGYSYLHWYQQRPGQSPRLLIYKISNRFSGVPDRFSGSGSGTDFTLKISRVEAEDVGVYYCSQGTHVPYTFGGGTKVEIKR	0.0021	1.17	no binding (tested: 0.002 µg/ml to 200 µg/ml)	1.02	0.483						
11A1H7-IgG1 (antibody, V domains shown, Humanised version of clone 1-1-A1, IgG1/kappa; also called 1A11H7) VH: QVQLVQSGAEVKKPGASVKVSCKASGYTFTGYVIHWVRQAPGQGLEWMGYINPYNGGTNYAQKFKGRVTLTSDTSTTTAYMELSRLRSEDTAVYYCASGGYYTMDYWGQGTLVTVSS VL: DVVMTQSPLSLPVTLGQPASISCRSSQHLEYSQGYSYLHWYQQRPGQSPRLLIYKVSNRDSGVPDRFSGSGSGTDFTLKISRVEAEDVGVYYCSQSTHVPYTFGGGTKVEIKR	36.8	20400	no binding (tested: 0.002 µg/ml to 200 µg/ml)	> 200	> 100						
anti-CD47 clone 1-1-A1 IgG1 (antibody, V domains shown) VH: EVQLQQSGPDLVKPGASVKMSCKASGYTFTNYVIHWVKQKPGQGLEWIGYINPYNDGTKSNEKFKGKATLTSDKSSTSAYMELSSLTSEDSAVYYCASGGYYTMDYWGQGTSVTVSS VL: DVVMTQTPLSLPVSLGDQASISCRSSQHLEYSNGYSYLHWYLQKPGQSPQLLIYKISNRFSGVPDRFSGSGSGTDFTLKISRVEAEDLGVYFCSQSTHVPYTFGGGTKLEIKR									9	0.00371	451000
11A1H4-IgG1 (antibody, V domains shown, Humanised version of clone 1-1-A1, IgG1/kappa; also called 1A11H4) VH: QVQLVQSGAEVKKPGASVKVSCKASGYTFTNYVIHWVRQAPGQGLEWMGYINPYNDGTKYNQKFKGRVTLTSDTSTTTAYMELSRLRSDDTAVYYCASGGYYTMDYWGQGTLVASTK VL: DVVMTQSPLSLPVTLGQPASISCRSSQHLEYSNGYSYLHWYQQRPGQSPRLLIYKISNRFSGVPDRFSGSGSGTDFTLKISRVEAEDVGVYYCSQSTHVPYTFGGGTKVEIKR	0.00018	0.1	no binding (tested: 0.002 µg/ml to 200 µg/ml)	0.32	0.15						
11A1H3-IgG1 (antibody, V domains shown, Humanised version of clone 1-1-A1, IgG1/kappa; also called 1A11H3) VH: QVQLVQSGAEVKKPGASVKVSCKASGYTFTNYVMHWVRQAPGQGLEWMGYINPYNDGTKSNEKFQGRVTLTSDTSTSTAYMELSSLRSEDTAVYYCASGGYYTMDYWGQGTLVASTK VL: DVVMTQSPLSLPVTLGQPASISCRSSQHLEYSNGYSYLHWYQQRPGQSPRLLIYKISNRFSGVPDRFSGSGSGTDFTLKISRVEAEDVGVYYCSQSTHVPYTFGGGTKVEIKR	0.00022	0.12	no binding (tested: 0.002 µg/ml to 200 µg/ml)			3.39	0.000904	266000			
11A1H6-IgG1 (antibody, V domains shown, Humanised version of clone 1-1-A1, IgG1/kappa; also called 1A11H6) VH: QVQLVQSGAEVKKPGASVKVSCKASGYTFTNYVIHWVRQAPGQGLEWMGYINPYNDGTKYNQKFKGRVTLTSDTSTTTAYMELSRLRSDDTAVYYCASGGYYTMDYWGQGTLVASTK VL: DVVMTQSPLSLPVTLGQPASISCRSSQHLEYSQGYSYLHWYQQRPGQSPRLLIYKVSNRDSGVPDRFSGSGSGTDFTLKISRVEAEDVGVYYCSQSTHVPYTFGGGTKVEIKR	13.4	7440	no binding (tested: 0.002 µg/ml to 200 µg/ml)	> 200	> 100	134	0.0144	108000			
